The series can be described thus: yeast display, Sf9 membrane polyspecificity reagent, FACS + sequencing; frameworks hold sequencing errors. The gist of the method: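 Polyreactivity labels are assigned by the sorting gate from which each nanobody was recovered. The gates were low and high (top ~1%), set on anti-HA fluorescence for expression and streptavidin fluorescence for reagent binding. Before sorting, galactose-induced (36–48 hours) yeast display cells were stained for 1 hour at 4 °C with 10% biotinylated, detergent-solubilized Sf9 membrane reagent.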
For “QVQLVESGGGLVQAGGSLRLSCAASGVTFNYNAMGWYRQAPGKERELVATITGSTYYADSVKGRFTISRDNAKNTVYLQMNSLKPEDTAVYYCTADASLVLAEYDYWGQGTQVTVSS”, the “polyreactivity (PSR sort gate)” value is “low polyreactivity”.

With “QVQLVESGGGLVQAGGSLRLSCAASGVTFSLNTMGWYRQSPGKERELVAAINSGDSTYADSVKGRFTISRDNAKNTVYVQMNSLKPEDTAVYYCTADPDWWYPYNYWGQGTQVTVSS”, the “polyreactivity (PSR sort gate)” value is recorded as “low polyreactivity”.

“QVQLVESGGGLVQAGGSLRLSCAASGYICVRYAMGWYRQAPGKEREFVAAISSSGGSTRYADSVKGRFTISRDNAKNTVYLQMNSLKPEDTAVYYCAATRVARHGSPMYYWGQGTQVTVSS”: the “polyreactivity (PSR sort gate)” value is on record as “high polyreactivity”.

Take “QVQLVESGGGLVQAGGSLRLSCAASGYIFAYNTMGWYRQAPGKERELVAAISRSGGSTYYADSVKGRFTISRDNAKNTVYLQMNSLKPEDTAVYYCAARYAPLDFRFDYWGQGTQVTVSS”: the “polyreactivity (PSR sort gate)” value is reported as “high polyreactivity”.

For “QVQLVESGGGLVQAGGSLRLSCAASGYIFDIYDMGWYRQATGKERELVAAITDYADSVKGRFTISRDNAKNTVYLQMNSLKPEDTAVYYCNVKFLVQPVTSVIGDYWGQGTQVTVSS”, the “polyreactivity (PSR sort gate)” value is “low polyreactivity”.

For the sequence “QVQLVESGGGLVQAGGSLRLSCAASGYIFDRYAMGWYRQAPGKERELVATITRRGGSTYYADSVKGRFTISRDNAKNTVYLQMNSLKPEDSAVYYCAKRSPGTYIAMGYWGQGTQVTVSS”, the “polyreactivity (PSR sort gate)” value is on record as “high polyreactivity”.

For the sequence “QVQLVESGGGLVQAGGSLRLSCAASGYIFERNAMGWYRQAPGKERELVAAITDDGDDTYYADSVKGRFTISRDNAKNTVYLQMNSLKPEETAVYYCAKDLYYGDYYYWGQGTQVTVSS”, the “polyreactivity (PSR sort gate)” value is recorded as “low polyreactivity”.

“QVQLVESGGGLVQAGGSLRLSCAASGYIFFGNAMGWYRQAPGKERELVAAIRGRGTSTYYADSVKGRFTISRDNAKNTVYLQMNSLKPEDTAVYYFDADVVRSNFYGTFMYDYDYWGQGTQVTVSS”: the “polyreactivity (PSR sort gate)” value is given as “low polyreactivity”.

With “QVQLVESGGGLVQAGGSLRLSCAASGYIFFNYGMGWYRQAPGKERELVAASTTIDGTTYYADSVKGRFTISRDNAKHTVYLQMNSLKPEDTAVYYCNADLYWLWYGEFDYWGQGTQVTVSS”, the “polyreactivity (PSR sort gate)” value is “high polyreactivity”.

For the sequence “QVQLVESGGGLVQAGGSLRLSCAASGYIFFRYAMGWYRQAPGKERELVAAINSSGDSTYADSVKGRFTISRDNAKNTVYLQMNSLKPEDTAVYYCNKDAPLFHDIIIDMDYWGQGTQVTVSS”, the “polyreactivity (PSR sort gate)” value was “low polyreactivity”.

As for “QVQLVESGGGLVQAGGSLRLSCAASGYIFGLYAMGWYRQAPGKERELVASITGGGSTYADSVKGRFTISRDNAKNTVYLQMISLKPEDTAVYYCAAESTVRPYEHSGDYWGQGTQVTVSS”, the “polyreactivity (PSR sort gate)” value is “low polyreactivity”.

Consider “QVQLVESGGGLVQAGGSLRLSCAASGYIFGSYVMGWYRQAPGKERELVAAITRIGASTYFADSVKGRFTISRDNAKNTVYLQMNSLKPDDTAVFYCATDQGGYYENDYWGQGTQVTVSS”, for which the “polyreactivity (PSR sort gate)” value is “low polyreactivity”.

On to “QVQLVESGGGLVQAGGSLRLSCAASGYIFGSYVMGWYRQAPGKERELVAAITRIGASTYYEDSVKGRFTISRDTAKNTVYIQMNSLKPDDTAVYDCATDQGGYYENDYWGQGTQVTVSS”, for which the “polyreactivity (PSR sort gate)” value is “low polyreactivity”.

Turning to “QVQLVESGGGLVQAGGSLRLSCAASGYIFGVYAMGWYRQAPGKERELVAAISIGGSTYYADSVKGPFTISRDNAKNTVYLQMNSLKPEDTAVYYCAARGWIRKTSSAYGYWGQGTQVTVSS”, the “polyreactivity (PSR sort gate)” value is “high polyreactivity”.

Turning to “QVQLVESGGGLVQAGGSLRLSCAASGYIFGVYAMGWYRQAPGKERELVAVITVTGGSTYYADSVKGRFTISRDNAKNTVYLQMNSLKPEDTAVYYCNTLEYLEYDYWGQGTQVTVSS”, the “polyreactivity (PSR sort gate)” value is “high polyreactivity”.

With “QVQLVESGGGLVQAGGSLRLSCAASGYIFKSYVMGWYRQAPGKERELVAAISWGGGRTYYADSVKGRFTISRDNAKNTVYLQMNSLKPEDTAVYYCAADTKVGNGIKFDYWGQGTQVTVSS”, the “polyreactivity (PSR sort gate)” value is listed as “high polyreactivity”.

For “QVQLVESGGGLVQAGGSLRLSCAASGYIFKTYDMGWYRQAPGKETELVAAITASGGSTSYADSVKGRFTISRDNAKNTVYLQMNSLKPEDTAVYYCAAVYVRFKAERGVYLYPYDYWGQGTQVTVSS”, the “polyreactivity (PSR sort gate)” value was “high polyreactivity”.

“QVQLVESGGGLVQAGGSLRLSCAASGYIFKWYAMGWYIQAPGKERELVAAITWSGDTTYYADSVKGRFTISRDNAQNTVYLQMNSLKPVDTAVYYCAVERDDQDYVYWGQGTQVTVSS”: the “polyreactivity (PSR sort gate)” value is recorded as “low polyreactivity”.

Take “QVQLVESGGGLVQAGGSLRLSCAASGYIFKYYAKGWYRQAPGKERELVAAISWDGTDTYYADSVKGRFTISRDNAKNTVYLQMNSLIPEDTAVYYCNADYDVYGWRNYWGQGTHVTVSS”: the “polyreactivity (PSR sort gate)” value is recorded as “low polyreactivity”.

For the sequence “QVQLVESGGGLVQAGGSLRLSCAASGYIFLPYAMGWYRQARGKEREVVAAIRWSGGSTYYADSVKGRFTISRDNAKNTVYLQMNSLKPEDTAVYYCAAYYVARDRRYPKAYSYEYWGQGTQVTVLS”, the “polyreactivity (PSR sort gate)” value was “high polyreactivity”.

In the case of “QVQLVESGGGLVQAGGSLRLSCAASGYIFLWYAMGWYRQAPGKERELVASISSGSTYYADSVKGRFTISRDNAKNTVYLLMNSLKPEDTAVYYCAAGWFASDYYYWGQGTQVTVSS”, the “polyreactivity (PSR sort gate)” value is reported as “low polyreactivity”.

Turning to “QVQLVESGGGLVQAGGSLRLSCAASGYIFPKNAMGWYRQAPGKERELVAAITGSGGSTYYADSVKGRFTISRDNAKNTVYLQMNSLKPEDTAVYYCAKRSWIEYDYWGQGTQVTVSS”, the “polyreactivity (PSR sort gate)” value is given as “low polyreactivity”.

As for “QVQLVESGGGLVQAGGSLRLSCAASGYIFPPNAMGWYRQAPGKDRELVAAIRRSTGSTYYADSVKGRFTISRDNAKNTVYLQMNSLKPEDTAVYYCAAYYGYITFGYTYEYWGQGSQVTVSS”, the “polyreactivity (PSR sort gate)” value is on record as “high polyreactivity”.

Consider “QVQLVESGGGLVQAGGSLRLSCAASGYIFPSYAMGWYRQAPGKERELVAVITTRGSTYYADSVKGRFTISRDNAKNTVYLQMNSVKAEETAVYYCAAAPYVYWFFVRPYGDDYWGLGTQVTVSS”, for which the “polyreactivity (PSR sort gate)” value was “high polyreactivity”.

On to “QVQLVESGGGLVQAGGSLRLSCAASGYIFQKNAMGWYRQAPGKERELVAAISSGTDRTYYADSVKGRFTISRDNAKYTVYLQMNSLKPDDTAVYYCAARYWGGYYYWGQGTQVTVSS”, for which the “polyreactivity (PSR sort gate)” value was “high polyreactivity”.

Take “QVQLVESGGGLVQAGGSLRLSCAASGYIFRAYAMGWYRQAPGKERELVAAITKRSGTTYYADSVKGRFTISRDNAKNTVYLQMNSLKPEDTAVYYCAAKTLYNSGTQDRAMGYWGQGTQVTVSS”: the “polyreactivity (PSR sort gate)” value is on record as “high polyreactivity”.

Take “QVQLVESGGGLVQAGGSLRLSCAASGYIFRSYAMGWYRQAPGKERELVAAITRSGGSTYYADSVKGRFTISRDNAKNTVYLQMNSPKPEDTAVYYCAVLPRGSNGMDYWGQGTQVTVSS”: the “polyreactivity (PSR sort gate)” value was “low polyreactivity”.

For “QVQLVESGGGLVQAGGSLRLSCAASGYIFSGYAMGWYRQAPGKEMELVAAISSNGGSTYYADSVKGRFTISRDNAKNTVYLQMNSLKPEDTAVYYCNRGLAARVGRGDYWGQGTQVTVSS”, the “polyreactivity (PSR sort gate)” value is “low polyreactivity”.

As for “QVQLVESGGGLVQAGGSLRLSCAASGYIFSYYAMGWNRPAPGKERELVATISSGGSTNYADSVKGRFTISRDNAKNTVYLQMNSLKPEDTAVYYCAATIGHNGFYYWGQGTLVTVSS”, the “polyreactivity (PSR sort gate)” value was “low polyreactivity”.

Regarding “QVQLVESGGGLVQAGGSLRLSCAASGYIFTGNAMGWYRQAPGKEREFVAAISWSGGSTYYADSVKGRFTISRDNAKNTVYLQMNSLKPEDTAVYDCNKYRPYGRIYHLAYGRDDWGQGTQVTVSS”, the “polyreactivity (PSR sort gate)” value is listed as “high polyreactivity”.

Values taken from the nanobody polyreactivity screen of Harvey et al. (2022).
